Biological target: T1, β2AR-GFP10 (human, UniProt P07550 1-413)
T1 construct: whole, on cells; Expressed in HEK293T cells; also called GFP tagged-β2 adrenergic receptor; not shown: GFP10, variant of GFP
Assay: BRET2 kinetics, living cells, 10 µM Iso up to 4 min

binding result: binds
B1: QL-Gαi1-122Rluc (other)
chain: MGCTLSAEDKAAVERSKMIDRNLREDGEKAAREVKLLLLGAGESGKSTIVKQMKIIHEAGYSEEECKQYKAVVYSNTIQSIIAIIRAMGRLKIDFGDSARADDARQLFVLAGAAEEGFMTAESGGGGSMTSKVYDPEQRKRMITGPQWWARCKQMNVLDSFINYYDSEKHAENAVIFLHGNAASSYLWRHVVPHIEPVARCIIPDLIGMGKSGKSGNGSYRLLDHYKYLTAWFELLNLPKKIIFVGHDWGACLAFHYSYEHQDKIKAIVHAESVVDVIESWDEWPDIEEDIALIKSEEGEKMVLENNFFVETMLPSKIMRKLEPEEFAAYLEPFKEKGEVRRPTLSWPREIPLVKGGKPDVVQIVRNYNAYLRASDDLPKMFIESDPGFFSNAIVEGAKKFPNTEFVKVKGLHFSQEDAPDEMGKYIKSFVERVLKNEQSGGGGSLAGVIKRLWKDSGVQACFNRSREYQLNDSAAYYLNDLDRIAQPNYIPTQQDVLRTRVKTTGIVETHFTFKDLHFKMFDVGGLRSERKKWIHCFEGVTAIIFCVALSDYDLVLAEDEEMNRMHESMKLFDSICNNKWFTDTSIILFLNKKDLFEEKIKKSPLTICYPEYAGSNTYEEAAAYIQCQFEDLNKRKDTKEIYTHFTCATDTKNVQFVFDAVTDVIIKNNLKDCGLF
notes: unable to hydrolyse GTP; also called Rluc-tagged constitutively active Q204L-Gαi1 mutant

Reference: patent US9029097 (UNIVERSITE DE MONTREAL, dated 2015)
